# The nanobody polyreactivity screen of Harvey et al. (2022)
# Test: yeast display, Sf9 membrane polyspecificity reagent, FACS + sequencing; frameworks hold sequencing errors
# Procedure, shortened: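 After 36–48 hours of galactose induction, yeast (Saccharomyces cerevisiae BJ5465) displaying a synthetic nanobody library were stained at 4 °C for 1 hour with 10% biotinylated, detergent-solubilized Sf9 membrane reagent. Streptavidin microbeads enriched the stained cells before FACS sorting into low and high (top ~1%) gates on anti-HA and streptavidin fluorescence. Each clone's polyreactivity label reflects its gate of origin.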
row,Sequence,polyreactivity (PSR sort gate)
1,QVQLVESGGGLVQAGGRLRLSCAASGSNFYENAMVWYRQAPGKERELVADITNSGGSTYYADSVKGRFTISRDNAKNTVYLQMNSLIPEDTAVFYFATDVGYFYTVVGGYDYWGQGTQVTVSS,low polyreactivity
2,QVQLVESGGGLVQAGGRLRLSCAASGSTFGDYAMGWYRQAPGKEREFVAAITWSGGSTNYADSVKGRFTISRDYAKNTVYLPMNSLKPEDTAVYYCAKPWYSSGFEYWGQGTQLTVSS,high polyreactivity
3,QVQLVESGGGLVQAGGRLRLSCAASGSTFGTNDMGWYRQAPGKEREFVASIDWSGDSTNYADSVKGRFTISRDNAKNTVYLQMNSLKPEDTADYYCAARVFPQIYYTSYDYWGQGTQVTVSS,high polyreactivity
4,QVQLVESGGGLVQAGGRLRLSCAASGSTFIGNAMGWYRQAPGKERELVAAISRTGGSTYADSVKGRFTISRDNAKNTVYLQMNSLKPEDTAVYYCAAKYYYLYYYWGQGTQVTVSS,high polyreactivity
5,QVQLVESGGGLVQAGGRLRLSCAASGSTFILNAMGWYRQAPGKERELVAAISRSGGNTYYADSVKRRFTISRDNAKNTVYLQMNSLKPADTAVYYCAATRRSHYYYWGQGTQVTVSS,high polyreactivity
6,QVQLVESGGGLVQAGGRLRLSCAASGSTFLNYAMGWYRQAPGKQRELVSSIDSSDGRTYYADSVKGRFTISRDNAKNTVYLQMNSLKPEDTEVYYCAKDSYAVELRPYSKLSSRADGYWGQGTQVTVSS,low polyreactivity
7,QVQLVESGGGLVQAGGRLRLSCAASGSTFPYYAMGWYRQAPGKERELVAVITRGGSTYYADSVKGRFTISRDNAQNTVYLQMNSLKPEDTAVYYCAARYTPGFCYWGQGTQVTVSS,high polyreactivity
8,QVQLVESGGGLVQAGGRLRLSCAASGSTFSWYVMGWYRQAPGKERELVAAITRGGGSTYYADSVKGRFTISRDNAKNTVYLQMNSLKPEDTAVYYCNADSNIPDYDYWGQGTQVTVSS,low polyreactivity
9,QVQLVESGGGLVQAGGRLRLSCAASGSTFSYYAMGWYRQAPGKERELVAAISSRGSSTYYADSVKGRFTISRDNAKNTVYLQMNSLKPQATAVYYCAAVRYSPTKFNYWGQGTQVTVSS,high polyreactivity
10,QVQLVESGGGLVQAGGRLRLSCAASGSTFVTNYMGRYRQAPGKERELVAAISSGTSTNYADSVKGRFTISRDNAKNTVYLQMNSLTREDTPVYYCAADSLKRYDYWGQGTQVTVSS,low polyreactivity
11,QVQLVESGGGLVQAGGRLRLSCAASGSTLDPYAMGLYRQAPGKERELVAAITISGGTTYNADSVKGRFTISRDNAKNTVYLQMNSMKPEDTAVYYCAAEGTYVTLGYYNLDVRYDYWGQGTQVTVSS,low polyreactivity
12,QVQLVESGGGLVQAGGRLRLSCAASGYTFPLYARGWYRQAPGKERELVADINIGGASSYYADSVKGRVTISRDNAKKTVYLQMNSLKPEDTAVYYCAKEYYDGYFPTFDYDYWGQGTQVTVSS,low polyreactivity
13,QVQLVESGGGLVQAGGRLRLSCAATGRTFRTYVMGWYRQGPGKEREMFAAITWSAGRTYYADSVKGRFTISRDNAQNTVYLQMNSLKPEDTAVYYCATLPTYYLRSYGLDYWGQGTQVTVSS,high polyreactivity
14,QVQLVESGGGLVQAGGRLRLSCAATGRTFWENAMGWYRQAPGKERELVAAISGDSGSTYYADSVKGRFTISRDNAKNTVYLQMNSLKPEDTAVYYCAADSDRDDSYPYYYWGQGTQVTVSS,low polyreactivity
15,QVQLVESGGGLVQAGGRLRLSFAASGFTFRYYAMGWYRQAPGKEREFVAAIRSSGTTTSYADSVKGRFTISRDNAKNTVYLHMKSLKPEDTAVYYCAKVSSSSYVEHRYGYWGQGTQVTVSS,high polyreactivity
16,QVQLVESGGGLVQAGGRLRLSWAASGSTFFGNAMGWYRQAPGKERELVAVITKGGGSTYYADSVKGRFTISRDNAKNTVYLQMNSLKPEDTAVYYCAKTYTSGYHRRYDYWGQGTQVTVSS,low polyreactivity
17,QVQLVESGGGLVQAGGRLRLTCAASGRIFYRYAMGWYRQAPGKERELVASITRSGITHYADSVKGRFTISRDNAKNTVYLQMNSLKPEDTAVYYCNARRGSPAPYDYWGKGTQVTVSS,high polyreactivity
18,QVQLVESGGGLVQAGGRLSLSCAASGSTFSPYAMGWYRQAPGKEREFVADISWPGGTTYYADSVKGRFTISRDNAKNTVYLQMNSLKPEDTAVYYCAVTYWDYTFQITYEYWGQGTQVTVSS,low polyreactivity
19,QVQLVESGGGLVQAGGRRRLSCAASGSTLRDYVMGWYRQAPGKERELVAAITGRVDDTYYADSVKGRFTISRDNAKNTVYLQMNSLKPEDTAGYYCAADYSVTLRIGGFYWFYAFDYWGQGSQVTVSS,low polyreactivity
20,QVQLVESGGGLVQAGGRSCAASGSTFRPYAMGWYRQAPGKEREFVAAISWRGGRTYYADSVKGRFTISRDNAKNTVYLQMNSLKPEDTAVYYCAVDPSIYRLSAYYYDYWGQGTQVTVSS,low polyreactivity
21,QVQLVESGGGLVQAGGSFRLSCAASGRIFSPNAMGWYRQAPGKEREFVAAITWRAGTTYYADSVKGRFTISRDNAKNTVYLLMNSLKPEDTAVYYCAAGRRLGYGYWGQGTQVTVSS,high polyreactivity
22,QVQLVESGGGLVQAGGSFRLSCAASGSIFDGYAMGWYRQAPGKERELVAAISSGGDSTYYADSVKGRFTISRDNAKNTVYLQMNSLKPEDTAVYYCNADSLVGHSYDYWGQGTQVTVSS,low polyreactivity

row,Sequence,polyreactivity (PSR sort gate)
1,QVQLVESGGGLVQAGGSFRLSCAASGSIFVVYAMGWYRQAPGKERELVAAITSGGSTYYADSVKGRFTISRDNAKNTVYLQMNSLKPEDTAVYYCNAKRTGPWFLHVPVYYWGQGTQVTVSS,low polyreactivity
2,QVQLVESGGGLVQAGGSHRISCAASGSTFPGYPMGWYRQAPGKERELVAAGGSTYYADSVKGRFTISRDNAKNTVYLQINSLKPEDTAVYYCAATWGSVQKGTYYYWGQGTQVTVSS,low polyreactivity
3,QVQLVESGGGLVQAGGSHRLSCAASGFIFYVYAMGWYRQAPGKERELVATINGRRSRTYYADSVKGRFTISRDNAKNTVYLQMNSLKPEDTAVYYCAAVAWVLRYGRGDYWGQGTQVTVSL,high polyreactivity
4,QVQLVESGGGLVQAGGSHRLSCAASGFTFDFYAMGWYRQAPGKERELVAAISKNDGTTYYADSVKGRFTISRDNAKNTVYLLLNRLKPEDSAVYYCAAESGYPVYTYVSSGDYWGQGTQVTGSS,low polyreactivity
5,QVQLVESGGGLVQAGGSHRLSCAASGFTFGYYVMGWYRQAPGKERELVAAISKRGSSTYYADCVKGRFTISRDNANTTVYLQMNSLKPVDTAVYYCAADGVYSHKDGHWGQGTQVTVSS,high polyreactivity
6,QVQLVESGGGLVQAGGSHRLSCAASGFTFRRNAMGWYRQAPGKERELVAAISWSGGSTYYADSVKGRFTISRDNAKNTVYLQMNSLKPEDTAVYYCAAYDYRHLEDKYDYWGQGTQVTVSS,high polyreactivity
7,QVQLVESGGGLVQAGGSHRLSCAASGFTFSAYTMGWYRQAPGKERELVAAISWRGTSTYYADSVKGRFTISRDNAKNTVYLQMNSLKPEDTAVYYCAVRWPSARIPVKLDYWGQGTQVNVSS,high polyreactivity
8,QVQLVESGGGLVQAGGSHRLSCAASGFTLRYYSMGRNRPATGKERELVAPISFRGVRTYYADSVKGRFTISRDNAKNTVYLQMNSLKPEDTAVYYCAAASRRGVLYPSLPVLPDDYWGQGTQVTVSS,high polyreactivity
9,QVQLVESGGGLVQAGGSHRLSCAASGGILETNAMGWYRQAPGKERELVAAIDFSAGSTYYADSVKGRFTISRDNAKNTVYLQMNSLKPEDTAVYYCAAESQGPKDDYLWGWHIYYYWGQGSQVTVSS,low polyreactivity
10,QVQLVESGGGLVQAGGSHRLSCAASGGTFNSNAMGWYRQAPGKERELVASITWRGGTYYADSVKGRFTISRDNAKNTVYLQMNSLKPEDTAVYYCAARGTIPGIHWIYYYWGQGTQVTVSS,high polyreactivity
11,QVQLVESGGGLVQAGGSHRLSCAASGIIFWYNAMGWYRQAPGKERELVAAISRGGGNTYADSVKGRFTISRDNAKNTVYLQMKSLKPEDTAVYYCAAKRSGYRFNTRWFRLPKYDYWGQGTQVTVSS,low polyreactivity
12,QVQLVESGGGLVQAGGSHRLSCAASGIIFYDNTMGWYRQAPGKERELVASITWRGGSTYYADSVKGRFTISRDNAKNTFYLQMNSLKPEDTAVYYCNADSSDDYDYWGQGTQVTVSS,low polyreactivity
13,QVQLVESGGGLVQAGGSHRLSCAASGIIFYRNAMGWYRQAPGKEREFVAAISSSGTNTYYADSVKGRFTISRDNAKITVYLQMNSLKPEDTAVYYCNADPDDGYFSDFDYWGQGTQVTVSS,low polyreactivity
14,QVQLVESGGGLVQAGGSHRLSCAASGIIIRYYAMGWYRQAPGKERDLVAAISGGGSTYYADSVKGRFTISRDNAKNTVYLQMNRLKPEDTAVYYCAAAGRWYYHGYNYWGQGTQVTVSS,high polyreactivity
15,QVQLVESGGGLVQAGGSHRLSCAASGITFAFNTMGWYRQAPGKERELVAAISYSGGRTYYADSVKGRFTISRDNAKNTVYLQMNSLKPEDTAVYYCNTRYRGSYDYWGQATQVTVSS,high polyreactivity
16,QVQLVESGGGLVQAGGSHRLSCAASGITFGSYVMGWYRQAPGKERELVAAISRSGGRTYYADSVKGRFTISRDNAKNTVYLQMNSLKPEDTAVYYCAARYDSGNYVYWGQGTQLTVSS,high polyreactivity
17,QVQLVESGGGLVQAGGSHRLSCAASGITFSTYAKGGYRQAPGKERELVAAITKSGGSTYYADSVKGRFTISRDTAKNTVYLQMNSLKPEDTAVYYCAAEGDWRGSALYNYWGLGTQVTVSS,low polyreactivity
18,QVQLVESGGGLVQAGGSHRLSCAASGLILGINAKGWYRQAPGTERELVAAISSSGGRTSYADSVKGRFTISRDNGKNTVYLQMNSLNPEDTAVYYCAKRRTTYSHYDYWGHGTQVTVSS,low polyreactivity
19,QVQLVESGGGLVQAGGSHRLSCAASGLTFSKYAMGWYRQAPGKERELVAAIRRSGGSTYYADSVKGRFTISRDNAKNTVYLQMNSLKPEDTAVYYCAADNYRYWNILRDYWGQGTQVTVSS,low polyreactivity
20,QVQLVESGGGLVQAGGSHRLSCAASGRIFKINAMGCYRQAPVKERELVAGISGSGSDTYYADSVKGRFTISRDNSKNTVYLQMNSLKPEDTAVYYCAATVVQYYDRDYWGQGTQVTVSS,low polyreactivity
21,QVQLVESGGGLVQAGGSHRLSCAASGRIFVIYAMGWNRQAPGKERELVALITRGSSTYADSVKGRFTISRDNAKNTVYLQMYSLKPEDTAVYYCAARRYVTVDYDYWGQGTQVTVSS,high polyreactivity
